Measurements from the DeepSol protein solubility set.

Experiment: soluble on expression in E. coli; label from the status in PepcDB or PDB records
For “MGSDKIHHHHHHMSLAIVYSRASMGVQAPLVTIEVHLSNGKPGFTLVGLPEKTVKEAQDRVRSALMNAQFKYPAKRITVNLAPADLPKEGGRFDLPIAIGILAASDQLDASHLKQFEFVAELALTGQLRGVHGVIPAILAAQKSKRELIIAKQNANEASLVSDQNTYFAQTLLDVVQFLNGQEKLPLATEIVKESAVNFSGKNTLDLTDIIGQQHAKRALTIAAAGQHNLLFLGPPGTGKTMLASRLTGLLPEMTDLEAIETASVTSLVQNELNFHNWKQRPFRAPHHSASMPALVGGGTIPKPGEISLATNGVLFLDELPEFERKVLDALRQPLESGEIIISRANAKIQFPARFQLVAAMNPSPTGHYTGTHNRTSPQQIMRYLNRLSGPFLDRFDLSIEVPLLPQGSLQNTGDRGETSAQVREKVLKVREIQMERAGKINAYLNSKEIERDCKLNDKDAFFLEKALNKLGLSVRAYHRILKVSRTIADLQGEQQIFQPHLAEALGYRAMVRLLQKLSNM”, the “soluble on expression in E. coli” value was “not soluble”. With “MGSDKIHHHHHHMSLAPSVIEPAHEEDAFMDLLATSALDDPLAAARDATADMLRQRQGDHSLPQPFYNDPRVFALEMREIFEHEWLFVGMTCEIPAKGNYLTVQIGDNPIIVVRGDQGTIHAFHNVCRHRGSRLCTQAKGKVAKLVCPYHQWTYELDGRLLFAGQDMGEDFDLGAHGLKPVAVTHAGGFLFVSLADQPPAIDDFLATLDDYLAPYEMDNVKVAAESNIVEQANWKLVIENNRECYHCNGAHPELLNSLIEYDDTDDPRATPAYRDLVARQQAHWEQQQVPWALKRFGKRNRLTRTPMIEGVVSMTMDGRPASQRLMGRLPNPDMGSLRILHLPNSWNHFMGDHAVVFRVLPLGPQQTLVTTKWLVHRDAQEGVDYDPEWMRKVWDATTDQDRQLAEENQRGINSVAYQPGPYSRTYEFGVIDFVDWYSDTMLSRLDAEAPSLHIVQG” the “soluble on expression in E. coli” value was “not soluble”. For “MGSDKIHHHHHHMSLLKITQGLFRLSDTRMLRLDELTLEQNQCWAFVGANGSGKSALARALSGELPLLSGERTTGFQHPVRLSFEQLQKLVSDEWQRNNTDLLSEGEDDTGRTTAEVIQDSLNDPTRCQQLACQFGIAHLLERRFKYLSTGETRKAMLCQALMPQPDLLILDEPFDGLDVTSRQQLADELRKLVDTGYTLVLILNRFDDIPDFINHIGVLADCTLTRIGEREAILSEALVAQLAFSEKLSGSSLPEPEDPQRHVTLPADEAHILLRNGVVQYNDRPILHELTWEVFPGQHWQIIGPNGAGKSTLLSLITGDHPQGYSNDLTLFGRKRGSGETIWDIKRHIGYVSSSLHLDYRVSTSVRNVILSGFFDSIGIYQAVSDRQRHLTEQWLILLGLSGAIADTPFQSLSWGQQRLTLIARALVKHPALLILDEPLQGLDPLNRQLVRRWLDILIGEGETQLLFVSHHAEDAPECITHRLTFVPHNDIYRYQIDELCK”, the “soluble on expression in E. coli” value was “not soluble”. In the case of “MGSDKIHHHHHHMSLTIDGVTKKFGTFTAVNNLHVSVPKGEMFGMLGANGAGKTTTFRMILGLLEPTEGTIHWREQPLTYNQTNCIGYLPEERGLYPKLTVKDQLKYLGRLKGMKTQDIQKEMKMWLERFEVPEYEHKRVEQLSKGNQQKIQFIASVLHRPELLILDEPFSGLDPVNVELLKKAVIDLKKEGTTILFSSHRMEHVEELCQHLCILHRGSPVVEGNLKNIKRSFGKKNVIIQGEFALEPLVDIPGVLRHQETSAGAKFQIANEETAKLLFQAVATAGFVQKFELEEPSLHDIFVEKVGTRYE”, the “soluble on expression in E. coli” value is reported as “not soluble”. With “MGSDKIHHHHHHMSLVCSVIFIHHAFNANILDKDYAFSDGEILMVDNAVRTHFEPYERHFKEIGFNENTIKKYLQCTNIQTVTVPVPAKFLRASNVPTGLLNEMIAYLNSEERNHHNFSELLLFSCLSIFAACKGFITLLTNGVLSVSGKVRNIVNMKLAHPWKLKDICDCLYISESLLKKKLKQEQTTFSQILLDARMQHAKNLIRVEGSVNKIAEQCGYASTSYFIYAFRKHFGNSPKRVSKEYRCQRHTGMNTGNTMSALAI” the “soluble on expression in E. coli” value was “not soluble”. In the case of “MGSDKIHHHHHHMSNIKVLIQASSRSWAGGRDICMGLVNGEIAIVRTIKRALTAFPEAQFCLVAPEFDRGGELKGIVDEIADKRLQAFYGFDESPLSRMVAASSELKDDDFIVRVDGIHFCFDTNLSQQMVSLAQKNNLDCIKLPADFPVHFSSEVFRVGALRELVKILDKPELAKFHVHPKTYFELNRYDYKFEHLGSLPQYSDDYLRECRQLAQAIYEIPRQEVNSHRIASGDRLGYHYQLALKYLKSSMKVLDIACADGYGVRMMSTSLATVHGADLDPESVAYAKAHSSQKNVAFFVEDITDMSFDDDSYDAVTSFETLEHVPEEACLKELQRIIKPGGMLVLSTPQNSYGHIPVNSCHIVEYSLDYLLNLVGQYFHIVKVIGIKAGIIHDDADPYGTNTVLVCIKPIR”, the “soluble on expression in E. coli” value is reported as “not soluble”. With “MGSDKIHHHHHHMSNKPFYYQDPFPLSKDDTEYRLLSSDFVSVAQFEGQDILKVEPAALTLLAQQAFHDASFMLRPAHQQQVADILHDPEASENDKYVALQFLRNSEISAKGILPTCQDTGTAIIVGKKGQNVWTGGNDAEALSQGVYNTFIEDNLRYSQNAALDMYQEVNTGTNLPAQIDLYSTEGEDYKFLFVTKGGGSANKTYLYQETKALLTPGKLKSFLIEKMRSLGTAACPPYHIAFAIGGTSAETTLKTVKLASTKYYDELPTEGNEHGQAFRDVALEQEILEAARDLGLGAQFGGKYFAHDVRIIRLPRHGASCPVGMGVSCSADRNIKGKINRKGVWLEQLEQNPGKYIPEHLRETGEGDAVKIDLNRPMTEILKTLSQYPVSTRLSLTGTIIVGRDIAHAKLKERLDNGEGLPQYIKDHPIYYAGPAKTPEGYPSGSLGPTTAGRMDSYVDLLQANGGSMVMLAKGNRSQQVTDACHKHGGFYLGSIGGPAAILAQNSIKSLTCVEYPELGMEAIWKIEVEDFPAFILVDDKGNDFFQVIQSAKCVKCG” the “soluble on expression in E. coli” value was “not soluble”. In the case of “MGSDKIHHHHHHMSNQRYMMRGVSASKEDVHNAIKNIDKGIFPKAFCKIIPDILGGDPEYCNIMHADGAGTKSSLAYMYWKETGDLSVWKGIAQDALIMNIDDLLCVGAVDNILVSSTIGRNKLLIPGEVISAIINGTDELLAELREMGVGVYATGGETADVGDLVRTIIVDSTVTCRMKRSDVINNANIRPGDVIVGLASYGQATYEKEYNGGMGSNGLTSARHDVFGKYLAEKYPESYDAAVPEELVYSGGLKLTDTVEDSPIDAGKLVLSPTRTYAPVVKKLLDTLRPEIHGMVHCSGGAQTKVLHFVENVRVVKDNLFPVPPLFKTIQEQSGTDWAEMYKVFNMGHRLEVYLSPEHAEEVIAISESFGIPAQIVGRIEACDQTELIIKSEFGEFRY”, the “soluble on expression in E. coli” value is reported as “not soluble”. With “MGSDKIHHHHHHMSNRDKILSYRDLIKKKLIPLINADYVLLDVPNHPNIGDNLIWEGELRFLENIHYKCIYSANVHNWDENKIKDAKIILFHGGGNWGDLYRECQEHRLYIAEKFKDKRIIIFPQTVWYNNKSILPIDCKIFNNHADIHICLRDQMSMDILSNYVDAKKLYLLPDMAFFVDVEAMPMRKVRNDCILFMLRTDSEIDDITFKLESDFDVKDWPTFSNNKYILLLYSYFEYFKVVVSKRLQKCKFLNVFVSPIYGLNRKNNRERYIYKGINFFSNYEIIYTTRLHGLILGILMDKKVIIVDNKYNKCKNYYDTWLREFDNIELMS” the “soluble on expression in E. coli” value was “not soluble”. With “MGSDKIHHHHHHMSNSLKASTAGLAIVDKSRQRLGWTKTSTARWWQDAHTSRATLRRFWQGDRIQREIFIAICQAVGIGNWEAIAELSNADLESTVVIPTPYLDCNEAPDLESFYGRNQELAQLEEWLTSQNCKLVTINGIAGIGKTALALALVDRIQLKFDCLIWKSLQTSPSLISLLNSLLNSFEQGVVVQNIQQGTAQLIQQLQKHHCLLILDGLEAIFSQPEDLSYGQFIQQLSRERHQSCILISSREQPNNIETNTKIYHCLNLKGLPKTEAVELLQSRGFTGKELGLSVLIQLYRGNPLVLKLVTPLIQSVFGGNVAAFLSQHTLIVGDRLRVILKQQFEQLSGLEQDILYWLAIWQEPVSFSRLQTHLLISVDPAMVLEGIVALERRSLLEKWVSDYELSFTLQPLVMKVVTDELIEHTVQEIDRVVQSHDIRHFQILRTHWLLRPGTDDIAGDRILTQLWKKLWHLYGATLPQIFNQILLLLKSQSPLAMGYIGSNVAILSGIDLL” the “soluble on expression in E. coli” value was “not soluble”. With “MGSDKIHHHHHHMSPPVRPVDHLIPEGAMTSFFDFAISQLPAATADRRGPAPDDIDAMLRRDSFAAALRLLAGSFIALYEGSPEMTTLFATRQSRLLCHALLALYFQKSTAEEGEIALTREDFGHLALRHGLASDRVAYVFFKEALKRGLTRPVDATEDQATGVVPSPPALAMLAQWYDVHFQALDLLDEGFRASRFIQRSETTLPHIHPHVSRAFLSHPEVRCPGPLSIIFNWFDAGGLLMDRLIAGIDRELPAEQGRRFTDVQTVTQLATSLSLSRSHVGRKLAAAELIGGIGWSGRRGRSALWISQGFYEEYARTQARKLLILDEALIGFV” the “soluble on expression in E. coli” value was “not soluble”. With “MGSDKIHHHHHHMSQERTDGDLRNTGLSLKHDREWDYELDRIVEAVEERDAEKVGLQFPEGLKRRGPAVADDLREELPDDVTVLLSGQPCYGACDLDTYMMRRTDVFVHFGHSPMKESDKIIYVPLFSNVDVFPIMEQAREEQLADPEDDPDVGLVTTAQHMNKFDEMREWLEERGYTVHTRRGDERLTHEGQVLGCNYASADVDADQMLYVGGGKFHPLGLAMEHPEKHVVIADPVNNVVTVADTEKFMKQRYGAVHRAMDAESWGVIFCTKIGQGRWDQAEEIVENNENAYLITMDEVTPDRLTNFGMDAYVNTGCPRITTDDGPQFKKPMLTPGEYEIAIGEKPLDSLEFDTFHGTW” the “soluble on expression in E. coli” value was “not soluble”. With “MGSDKIHHHHHHMSQHVLLNSIEHKDVKVMTHRSAALGDNLWYSVTFPQEFRSVQAHYPIFFHKDTATGQFYAVALFGFQQNDNVFLSDQGWSASYVPLTVRRQPFLIGQQTVLEDGVERQQRVIHVDLDHPRVSETEGEALFLPYGGNTPLLDEVGEILEVIHHGLQDGQRFVDALIEHQLLESFTLDIELDNGQKNQMIGFYTINEETLAGLSADALAKLHQQGYLQAIYMTLASQSNVRDLLNLKNAQG” the “soluble on expression in E. coli” value was “not soluble”. In the case of “MGSDKIHHHHHHMSQMHQQLINEYTRTRLNEEAVSIERIYFYKTDKRVNPKQEEPFWHAAGDIPILVSAPHAVRHFRQKKIKMSDEYTGSIVYLLNKLTGCHAIAVTKLYGGDPNVDSPCIYKEKLAQLCRQGKIKLLLDIHGAARDRDFDVDFGTNNRRNLLEKMHTDEILAQNFRNCGFSKISSDYFAASSPNTIANFAARELGIPAVQIEINKHYRVPAQNPQGFHRLMAALVESINSVGRRYQEGWKDINRERKIR”, the “soluble on expression in E. coli” value is reported as “not soluble”. With “MGSDKIHHHHHHMSRALAKPEIITELSFEEIRAAVLTHLKELLPEYTFLESDPAVKVIEAFSYRELLLRQRINEAARNNILDFATGESLDALGNWHGIARIEGESDERYRERVQLHARGGNGSGTEPYYKLIALTADSRVKDAIIYRKGKDPTIYVAIFGNNEEGTASEDLLQTVSQALHRKNIIMTNDTIIVHAAVKKVLDLEADVWLLPEASLKILTTMEANLRTAWKQEQAIGRELSLSWWVSKLMIPGVQKVIAIAPTKDSVVCDEEILSIGKITLNFKGRAR” the “soluble on expression in E. coli” value was “not soluble”. For “MGSDKIHHHHHHMSRFFRHYQAFHAIIETGTVTGAAERLGVSQPAISNLLAQLERRTRLKLFERNRGRLLPTPEAMVLFDEIDTVIRGLGQVSQAVVDLQNQKAGQLQVATNHAMAFGFMPEQIARFAADKPNLTVAFQSQYSAKIQDWVMAGLFEIGICEQPVRTDGLDWVPFFFEIQCAVPADSPLARHEELTPILLDDVPFIVMGADHMVTRRAREAFHREGANLRIRCQTDLFRNALNLVKQGLGVTLVDPFTLSSDDRSGYVLRRFAPRILLDVIIVTARGRPISAIGAQFLEQVSASMTTLATAAPDPAEP”, the “soluble on expression in E. coli” value was “not soluble”.
